The target of test [1] is αIIbβ3 integrin headpiece (UniProt P08514). Put plainly: crystal structure.
Test [2] has as its system αIIbβ3 headpiece ligand binding site. Put plainly: Occupancy of ligand binding site by soaked RGD peptide. Particulars: 10 mM GRGDSP, Mg/Ca (5 mM Mg/1 mM Ca), 24 h, closed headpiece crystals.
A further test has as its system α4β7 headpiece. The note with it: EM; ref Yu et al., 2012; cited from earlier work.
Test [3] addresses T1, αIIb subunit β-propeller domain (UniProt P08514).
T1 sequence: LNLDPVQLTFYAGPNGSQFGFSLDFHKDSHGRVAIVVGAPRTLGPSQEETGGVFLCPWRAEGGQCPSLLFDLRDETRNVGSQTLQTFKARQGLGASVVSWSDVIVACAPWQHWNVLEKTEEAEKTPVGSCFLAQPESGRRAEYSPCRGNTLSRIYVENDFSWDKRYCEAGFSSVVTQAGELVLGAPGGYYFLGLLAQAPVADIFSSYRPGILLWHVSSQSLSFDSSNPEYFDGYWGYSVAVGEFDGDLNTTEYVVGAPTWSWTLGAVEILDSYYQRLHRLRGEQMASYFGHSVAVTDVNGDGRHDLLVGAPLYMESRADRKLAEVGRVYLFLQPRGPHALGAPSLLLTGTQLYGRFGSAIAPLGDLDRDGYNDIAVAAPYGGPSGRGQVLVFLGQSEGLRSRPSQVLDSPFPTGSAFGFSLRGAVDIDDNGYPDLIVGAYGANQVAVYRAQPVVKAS
Put plainly: crystal structure.

In test [4] the target is T2, β3 subunit PSI, hybrid, βI, and I-EGF-1 domains (UniProt P05106).
T2 sequence: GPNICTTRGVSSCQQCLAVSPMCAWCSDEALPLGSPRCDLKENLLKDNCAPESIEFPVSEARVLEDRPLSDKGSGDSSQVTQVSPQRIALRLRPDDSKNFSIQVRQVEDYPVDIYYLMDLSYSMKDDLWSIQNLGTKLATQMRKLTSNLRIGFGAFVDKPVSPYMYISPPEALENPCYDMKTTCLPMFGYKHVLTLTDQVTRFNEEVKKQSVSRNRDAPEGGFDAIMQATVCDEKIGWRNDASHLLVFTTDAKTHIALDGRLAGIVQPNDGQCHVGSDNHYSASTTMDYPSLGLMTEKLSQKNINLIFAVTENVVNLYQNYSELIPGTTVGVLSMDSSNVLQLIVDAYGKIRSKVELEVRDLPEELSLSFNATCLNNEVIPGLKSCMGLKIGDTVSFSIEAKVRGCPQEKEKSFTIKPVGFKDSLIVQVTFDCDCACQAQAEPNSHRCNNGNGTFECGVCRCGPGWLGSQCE
Put plainly: crystal structure.

Test [5] concerns the target T3, αIIbβ3 integrin headpiece (UniProt P08514;P05106).
T3 sequence 1: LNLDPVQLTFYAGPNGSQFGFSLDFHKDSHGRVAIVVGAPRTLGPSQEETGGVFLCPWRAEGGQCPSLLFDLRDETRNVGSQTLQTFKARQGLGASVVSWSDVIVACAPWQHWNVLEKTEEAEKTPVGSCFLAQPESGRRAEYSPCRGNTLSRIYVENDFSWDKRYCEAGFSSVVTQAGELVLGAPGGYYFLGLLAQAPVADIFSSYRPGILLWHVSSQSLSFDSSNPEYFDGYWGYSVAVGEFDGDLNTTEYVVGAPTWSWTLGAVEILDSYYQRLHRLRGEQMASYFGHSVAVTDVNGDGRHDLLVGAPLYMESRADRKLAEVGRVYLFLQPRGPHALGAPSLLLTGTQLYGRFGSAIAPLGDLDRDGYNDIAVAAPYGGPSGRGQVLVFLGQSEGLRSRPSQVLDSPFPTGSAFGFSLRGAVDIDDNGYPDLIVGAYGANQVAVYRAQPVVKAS
T3 sequence 2: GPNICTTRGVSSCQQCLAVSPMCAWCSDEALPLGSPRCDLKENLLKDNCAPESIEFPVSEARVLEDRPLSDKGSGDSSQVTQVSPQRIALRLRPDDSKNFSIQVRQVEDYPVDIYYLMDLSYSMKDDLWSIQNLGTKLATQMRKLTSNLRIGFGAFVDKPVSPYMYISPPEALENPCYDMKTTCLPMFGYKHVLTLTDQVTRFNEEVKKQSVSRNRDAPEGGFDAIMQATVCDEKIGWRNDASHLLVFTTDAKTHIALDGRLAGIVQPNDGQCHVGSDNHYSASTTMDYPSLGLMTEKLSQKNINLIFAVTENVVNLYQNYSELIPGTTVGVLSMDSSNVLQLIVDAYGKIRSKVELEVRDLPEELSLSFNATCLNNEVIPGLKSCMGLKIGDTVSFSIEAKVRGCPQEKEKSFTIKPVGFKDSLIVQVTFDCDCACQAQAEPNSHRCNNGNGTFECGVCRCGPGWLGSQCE
Put plainly: crystal structure.

The text below walks through data of article PMC3691460 (The Journal of Cell Biology, 2013).

In test [1], GRGDSP peptide had a Kd of 0.34 to 10 mM and a fold higher affinity of the open than of the closed headpiece of more than 200 fold.
Take `N=C(N)NCCC[C@H](NC(=O)CN)C(=O)NCC(=O)N[C@@H](CC(=O)O)C(=O)N[C@@H](CO)C(=O)N1CCC[C@H]1C(=O)O` [GRGDSP]: the “Bound ligand / occupation of the ligand binding site” value in test [2] is “diffraction revealed bound peptide”.

B1: MAdCAM-1: ligand binding to the α4β7 headpiece (protein, UniProt Q13477 19-382, looked up)
Mucosal addressin cell …: QSLQVKPLQVEPPEPVVAVALGASRQLTCRLACADRGASVQWRGLDTSLGAVQSDTGRSVLTVRNASLSAAGTRVCVGSCGGRTFQHTVQLLVYAFPDQLTVSPAALVPGDPEVACTAHKVTPVDPNALSFSLLVGGQELEGAQALGPEVQEEEEEPQGDEDVLFRVTERWRLPPLGTPVPPALYCQATMRLPGLELSHRQAIPVLHSPTSPEPPDTTSPESPDTTSPESPDTTSQEPPDTTSPEPPDKTSPEPAPQQGSTHTPRSPGSTRTRRPEISQAGPTQGEVIPTGSSKPAGDQLPAALWTSSAVLGLLLLALPTYHLWKRCRHLAEDDTHPPASLRLLPQVSAWAGLRGTGQVGISPS
As to B1, the “State of the headpiece upon binding” value in the test on α4β7 headpiece was “either an intermediate or open state”.
With GRGDSP [GRGDSP peptide], the binding result in test [3] and in test [4] was “binds” throughout.
In the case of GRGDSPK [GRGDSPK peptide], in test [5], the binding result was “binds”.

As a reminder, the Kd is the free concentration of one partner at which half of the binding sites on the other are occupied at equilibrium, for simple one-to-one binding. High values mean a looser complex, low ones a tighter complex.
